# Laboratory results as given in PMC3178552.
# How the values were obtained:
# [1] = target: vesicular stomatitis virus nucleoprotein lacking its 21 N-terminal residues (N[change]), MBP tag removed (vesicular stomatitis virus) (UniProt P03521); assay: SEC-MALS
# [2] = target: vesicular stomatitis virus nucleoprotein lacking its 21 N-terminal residues (N[change]), MBP tag removed (vesicular stomatitis virus) (UniProt P03521); assay: crystal structure
Substance,stoichiometry N [1],stoichiometry N [2]
"P60: the first 60 amino acids of VSV phosphoprotein P, a two-amino acid linker and a C-terminal His6-tag (from UniProt P03520 1-60) (peptide)",1,–
"vesicular stomatitis virus nucleoprotein lacking its 21 N-terminal residues (N[change]), MBP tag removed (from UniProt P03521 22-422) (domain or fragment)",–,10
